The values that follow come from patent US20190211071A1 (NATIONAL UNIVERSITY OF SINGAPORE, published 2019).

Experiment [1] addresses T1, rat NPR-A (rat, UniProt P18910 29-1057).
T1 sequence (looked up): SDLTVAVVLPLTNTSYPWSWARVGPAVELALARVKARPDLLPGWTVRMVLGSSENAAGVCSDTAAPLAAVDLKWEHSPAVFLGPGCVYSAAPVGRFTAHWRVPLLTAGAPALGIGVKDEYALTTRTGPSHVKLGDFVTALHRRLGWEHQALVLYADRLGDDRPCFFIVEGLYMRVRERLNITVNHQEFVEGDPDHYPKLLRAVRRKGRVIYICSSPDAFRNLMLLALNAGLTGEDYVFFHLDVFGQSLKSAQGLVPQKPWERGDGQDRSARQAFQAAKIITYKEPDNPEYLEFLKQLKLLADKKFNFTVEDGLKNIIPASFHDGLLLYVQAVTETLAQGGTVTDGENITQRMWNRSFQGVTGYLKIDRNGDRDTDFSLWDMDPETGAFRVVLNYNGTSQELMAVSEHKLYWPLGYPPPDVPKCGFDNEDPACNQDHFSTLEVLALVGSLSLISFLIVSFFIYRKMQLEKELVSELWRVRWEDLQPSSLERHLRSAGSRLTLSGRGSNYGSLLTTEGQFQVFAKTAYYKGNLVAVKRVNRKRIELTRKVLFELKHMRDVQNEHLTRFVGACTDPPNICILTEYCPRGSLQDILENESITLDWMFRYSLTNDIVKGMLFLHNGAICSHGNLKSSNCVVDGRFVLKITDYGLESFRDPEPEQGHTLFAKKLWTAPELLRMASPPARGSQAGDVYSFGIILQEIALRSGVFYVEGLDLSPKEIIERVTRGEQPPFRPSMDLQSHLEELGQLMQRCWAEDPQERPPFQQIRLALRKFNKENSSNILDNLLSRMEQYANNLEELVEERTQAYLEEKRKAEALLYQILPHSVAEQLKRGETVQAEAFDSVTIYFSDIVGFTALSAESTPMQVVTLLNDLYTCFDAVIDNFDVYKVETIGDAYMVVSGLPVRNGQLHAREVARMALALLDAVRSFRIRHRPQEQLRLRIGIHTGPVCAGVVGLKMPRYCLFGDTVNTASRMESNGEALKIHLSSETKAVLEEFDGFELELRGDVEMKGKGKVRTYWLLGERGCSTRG
Briefly: cell-based or functional assay.

Experiment [2] concerns the target T1, rat NPR-A. Briefly: cell-based or functional assay. The source holds these as a separate data set.

Positions of bridges follow the written chain, without caps; N, C: chain ends. No end group written: not given here.

On to GLLISCFDRRIDRISHTSDIGCRH (disulfide 6-22) [K-Ring], for which the “time to produce similar levels of cGMP (time-chase at EC50 concentration)” value with rat NPR-A [1] came to 30 min. Moreover, in the experiment with rat NPR-A [2], the “NPR-A activation potency IC50” value was 244 nM, the “NPR-A activation potency: Ratio compared ANP” value was 14.1 ratio, the “NPR-A activation potency: Ratio compared wild type NPs” value amounted to 1 ratio and the “Rate of generation of cGMP (pmol cGMP/pmol peptide)” value (“Rate … (pmol cGMP/pmol peptide)” for short) was 0.0228 pmol cGMP/pmol peptide. Also, in the experiment with rat NPR-A [2], the “Rate of generation of cGMP: Ratio compared ANP” value (shortened to “Rate … Ratio compared ANP”) amounted to 350 ratio and the “Rate of generation of cGMP: Ratio compared wild type NPs” value (shortened to “Rate … Ratio compared wild type NPs”) came out at 1 ratio.

On to GLLISCFDGRIDRISHTSDIGCRH (disulfide 6-22) [^DGDK-Ring], for which, in the experiment with rat NPR-A [2], the “NPR-A activation potency IC50” value turned out to be 866 nM, the “NPR-A activation potency: Ratio compared ANP” value is 50.1 ratio, the “NPR-A activation potency: Ratio compared wild type NPs” value is 3.6 ratio and the “Rate … (pmol cGMP/pmol peptide)” value stood at 0.005 pmol cGMP/pmol peptide. Besides, in the experiment with rat NPR-A [2], the “Rate … Ratio compared ANP” value amounted to 1590 ratio and the “Rate … Ratio compared wild type NPs” value was found to be 4.6 ratio.

On to SLRRSSCFDRRMDRIGAQSDLGCNSFRY (disulfide 7-23 (inferred)) [^DRDANP], for which, in the experiment with rat NPR-A [2], the “NPR-A activation potency IC50” value was found to be 45.2 nM, the “NPR-A activation potency: Ratio compared ANP” value came to 2.6 ratio, the “NPR-A activation potency: Ratio compared wild type NPs” value was determined as 2.6 ratio and the “Rate … (pmol cGMP/pmol peptide)” value is 0.38 pmol cGMP/pmol peptide. Also, in the experiment with rat NPR-A [2], the “Rate … Ratio compared ANP” value was determined as 21 ratio and the “Rate … Ratio compared wild type NPs” value was determined as 21 ratio.

On to GLLISCFGRRIDRISHTSGIGCRH (disulfide 6-22) [^GRGK-Ring], for which, in the experiment with rat NPR-A [1], the “activation kinetics compared to K-Ring” value was 3 fold and the “potency of cGMP response compared to K-Ring” value was 4 fold. Besides, in the experiment with rat NPR-A [2], the “NPR-A activation potency IC50” value amounted to 87.7 nM, the “NPR-A activation potency: Ratio compared ANP” value stood at 5.1 ratio, the “NPR-A activation potency: Ratio compared wild type NPs” value is -2.8 ratio and the “Rate … (pmol cGMP/pmol peptide)” value was 0.19 pmol cGMP/pmol peptide. In addition, in the experiment with rat NPR-A [2], the “Rate … Ratio compared ANP” value amounted to 41.9 ratio and the “Rate … Ratio compared wild type NPs” value stood at 8.3 ratio.

As to GLLISCFDRRIDRISHTSDIGCNSFRY (disulfide 6-22) [K-Ring^NSFRY], in the experiment with rat NPR-A [2], the “NPR-A activation potency IC50” value was found to be 43.8 nM, the “NPR-A activation potency: Ratio compared ANP” value stood at 2.5 ratio, the “NPR-A activation potency: Ratio compared wild type NPs” value was -5.6 ratio and the “Rate … (pmol cGMP/pmol peptide)” value came out at 0.31 pmol cGMP/pmol peptide. In addition, in the experiment with rat NPR-A [2], the “Rate … Ratio compared ANP” value was determined as 25.7 ratio and the “Rate … Ratio compared wild type NPs” value worked out at 13.6 ratio.

For GLLISCFGRRIDRISHTSDIGCRH (disulfide 6-22) [^GRDK-Ring], in the experiment with rat NPR-A [2], the “NPR-A activation potency IC50” value worked out at 50.7 nM, the “NPR-A activation potency: Ratio compared ANP” value turned out to be 2.9 ratio, the “NPR-A activation potency: Ratio compared wild type NPs” value is -4.8 ratio and the “Rate … (pmol cGMP/pmol peptide)” value was determined as 0.113 pmol cGMP/pmol peptide. In the experiment with rat NPR-A [2], the “Rate … Ratio compared ANP” value was 70.5 ratio and the “Rate … Ratio compared wild type NPs” value is 5 ratio.

With SLRRSSCFDGRMDRIGAQSDLGCNSFRY (disulfide 7-23 (inferred)) [^DGDANP], in the experiment with rat NPR-A [2], the “NPR-A activation potency IC50” value was determined as 135 nM, the “NPR-A activation potency: Ratio compared ANP” value is 7.8 ratio, the “NPR-A activation potency: Ratio compared wild type NPs” value was found to be 7.8 ratio and the “Rate … (pmol cGMP/pmol peptide)” value amounted to 0.14 pmol cGMP/pmol peptide. Moreover, in the experiment with rat NPR-A [2], the “Rate … Ratio compared ANP” value is 56.9 ratio and the “Rate … Ratio compared wild type NPs” value stood at 56.9 ratio.

For the molecule GLLISCFDRRIDRISHTSGIGCRH (disulfide 6-22) [^DRGK-Ring], in the experiment with rat NPR-A [2], the “NPR-A activation potency IC50” value amounted to 694 nM, the “NPR-A activation potency: Ratio compared ANP” value worked out at 40.1 ratio, the “NPR-A activation potency: Ratio compared wild type NPs” value worked out at 2.8 ratio and the “Rate … (pmol cGMP/pmol peptide)” value turned out to be 0.007 pmol cGMP/pmol peptide. For the same molecule, in the experiment with rat NPR-A [2], the “Rate … Ratio compared ANP” value was 1140 ratio and the “Rate … Ratio compared wild type NPs” value was 3.2 ratio.
